# According to IntAct's records for PubMed 16754960:
# B1: Ras-related protein Rab-21 (Mus musculus), P35282 (parent)
# chain: MAAAGGGAAAAAGRAYSFKVVLLGEGCVGKTSLVLRYCENKFNDKHITTLQASFLTKKLNIGGKRVNLAIWDTAGQERFHALGPIYYRDSNGAILVYDVTDEDSFQKVKNWVKELRKMLGNEICLCIVGNKIDLEKERHVSIQEAESYAESVGAKHYHTSAKQNKGIEELFLDLCKRMIETAQVDERAKGNGSSQAGAARRGVQIIDDEPQAQSSGGCCSSG
# Tests used:
# itb1_human ITGB1, P05556 [1] = variants of: B1; conditions: with itb1_human ITGB1, P05556
# ita2_human ITGA2, P17301 = variants of: B1; conditions: with ita2_human ITGA2, P17301
# Chain of ita2_human ITGA2, P17301 (P17301 whole entry): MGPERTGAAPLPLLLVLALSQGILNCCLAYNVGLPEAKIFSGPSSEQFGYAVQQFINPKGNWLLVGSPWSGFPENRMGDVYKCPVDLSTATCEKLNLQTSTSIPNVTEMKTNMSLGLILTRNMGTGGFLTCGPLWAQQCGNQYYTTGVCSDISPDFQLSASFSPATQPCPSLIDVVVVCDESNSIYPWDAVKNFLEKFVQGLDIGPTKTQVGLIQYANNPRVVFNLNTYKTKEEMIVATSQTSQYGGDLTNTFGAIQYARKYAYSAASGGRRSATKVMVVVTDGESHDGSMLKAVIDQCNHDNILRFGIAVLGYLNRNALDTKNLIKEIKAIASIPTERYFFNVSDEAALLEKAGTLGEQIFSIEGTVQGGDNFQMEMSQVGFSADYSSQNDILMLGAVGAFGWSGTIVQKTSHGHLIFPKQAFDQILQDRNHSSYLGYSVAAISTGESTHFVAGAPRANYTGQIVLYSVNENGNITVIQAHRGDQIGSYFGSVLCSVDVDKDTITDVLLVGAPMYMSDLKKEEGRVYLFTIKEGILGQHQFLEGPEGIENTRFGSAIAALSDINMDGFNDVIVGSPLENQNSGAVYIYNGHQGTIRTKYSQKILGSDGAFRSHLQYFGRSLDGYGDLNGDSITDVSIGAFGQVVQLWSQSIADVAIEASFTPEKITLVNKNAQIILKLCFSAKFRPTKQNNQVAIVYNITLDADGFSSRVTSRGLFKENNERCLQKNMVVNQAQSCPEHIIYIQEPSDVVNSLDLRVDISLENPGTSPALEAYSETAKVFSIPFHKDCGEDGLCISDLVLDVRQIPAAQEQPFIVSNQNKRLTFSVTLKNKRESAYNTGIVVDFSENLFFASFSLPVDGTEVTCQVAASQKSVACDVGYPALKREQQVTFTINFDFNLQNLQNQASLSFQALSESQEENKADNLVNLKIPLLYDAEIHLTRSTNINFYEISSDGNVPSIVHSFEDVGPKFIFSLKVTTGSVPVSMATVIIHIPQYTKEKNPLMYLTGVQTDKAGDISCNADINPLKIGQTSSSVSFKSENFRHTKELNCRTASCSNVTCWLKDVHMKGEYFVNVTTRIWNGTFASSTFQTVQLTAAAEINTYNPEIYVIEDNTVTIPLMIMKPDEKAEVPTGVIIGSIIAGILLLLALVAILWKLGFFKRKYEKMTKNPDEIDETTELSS
# itb1_human ITGB1, P05556 [2] = variants of: B1; conditions: with itb1_human ITGB1, P05556; remark: listed apart in the source
# Chain of itb1_human ITGB1, P05556 (P05556 whole entry): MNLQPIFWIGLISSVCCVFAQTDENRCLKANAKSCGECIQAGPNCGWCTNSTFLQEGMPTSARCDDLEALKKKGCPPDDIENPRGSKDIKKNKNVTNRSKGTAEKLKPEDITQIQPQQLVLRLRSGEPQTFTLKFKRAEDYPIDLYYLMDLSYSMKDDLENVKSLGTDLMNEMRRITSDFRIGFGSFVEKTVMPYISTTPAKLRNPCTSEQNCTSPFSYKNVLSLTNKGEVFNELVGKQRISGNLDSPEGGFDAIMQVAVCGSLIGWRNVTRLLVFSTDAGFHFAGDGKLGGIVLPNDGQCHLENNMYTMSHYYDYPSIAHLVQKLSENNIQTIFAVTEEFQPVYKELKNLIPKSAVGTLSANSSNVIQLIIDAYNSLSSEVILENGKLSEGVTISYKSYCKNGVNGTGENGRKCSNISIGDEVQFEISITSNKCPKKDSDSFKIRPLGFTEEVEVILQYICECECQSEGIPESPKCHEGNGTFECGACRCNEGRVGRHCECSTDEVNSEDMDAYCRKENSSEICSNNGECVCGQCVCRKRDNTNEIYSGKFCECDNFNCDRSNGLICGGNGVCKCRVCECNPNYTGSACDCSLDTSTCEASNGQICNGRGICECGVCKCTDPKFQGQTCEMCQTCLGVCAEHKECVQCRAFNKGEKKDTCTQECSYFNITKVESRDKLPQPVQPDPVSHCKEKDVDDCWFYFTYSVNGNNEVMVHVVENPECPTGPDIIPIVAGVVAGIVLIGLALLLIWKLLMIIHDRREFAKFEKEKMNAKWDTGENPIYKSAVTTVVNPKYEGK
"effect of a mutation on the interaction (itb1_human ITGB1, P05556 [1])","effect of a mutation on the interaction (ita2_human ITGA2, P17301)","effect of a mutation on the interaction (itb1_human ITGB1, P05556 [2])",Variant
decreasing interaction,decreasing interaction,,MAAAGGGAAAAAGRAYSFKVVLLGEGCVGKNSLVLRYCENKFNDKHITTLQASFLTKKLNIGGKRVNLAIWDTAGQERFHALGPIYYRDSNGAILVYDVTDEDSFQKVKNWVKELRKMLGNEICLCIVGNKIDLEKERHVSIQEAESYAESVGAKHYHTSAKQNKGIEELFLDLCKRMIETAQVDERAKGNGSSQAGAARRGVQIIDDEPQAQSSGGCCSSG [T31N]
,increasing interaction,increasing interaction,MAAAGGGAAAAAGRAYSFKVVLLGEGCVGKTSLVLRYCENKFNDKHITTLQASFLTKKLNIGGKRVNLAIWDTAGLERFHALGPIYYRDSNGAILVYDVTDEDSFQKVKNWVKELRKMLGNEICLCIVGNKIDLEKERHVSIQEAESYAESVGAKHYHTSAKQNKGIEELFLDLCKRMIETAQVDERAKGNGSSQAGAARRGVQIIDDEPQAQSSGGCCSSG [Q76L]
